The source of these data is PMC11549086 (2024).

The target in experiment [1] is T1, taxol-stabilized microtubules (tubulin) (Sus scrofa, UniProt P02550).
T1 chain 1: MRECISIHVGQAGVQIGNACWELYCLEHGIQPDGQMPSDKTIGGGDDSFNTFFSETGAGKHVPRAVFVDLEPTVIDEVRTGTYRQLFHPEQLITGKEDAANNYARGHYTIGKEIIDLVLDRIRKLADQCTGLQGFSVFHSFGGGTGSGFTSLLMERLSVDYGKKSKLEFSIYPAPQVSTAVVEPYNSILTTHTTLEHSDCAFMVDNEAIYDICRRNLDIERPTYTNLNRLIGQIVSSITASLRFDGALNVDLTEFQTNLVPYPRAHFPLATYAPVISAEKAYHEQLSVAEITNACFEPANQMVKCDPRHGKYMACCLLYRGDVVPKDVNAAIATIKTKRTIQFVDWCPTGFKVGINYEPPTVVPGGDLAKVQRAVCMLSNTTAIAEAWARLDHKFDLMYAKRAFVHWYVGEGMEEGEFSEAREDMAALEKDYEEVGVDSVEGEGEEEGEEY
T1 chain 2: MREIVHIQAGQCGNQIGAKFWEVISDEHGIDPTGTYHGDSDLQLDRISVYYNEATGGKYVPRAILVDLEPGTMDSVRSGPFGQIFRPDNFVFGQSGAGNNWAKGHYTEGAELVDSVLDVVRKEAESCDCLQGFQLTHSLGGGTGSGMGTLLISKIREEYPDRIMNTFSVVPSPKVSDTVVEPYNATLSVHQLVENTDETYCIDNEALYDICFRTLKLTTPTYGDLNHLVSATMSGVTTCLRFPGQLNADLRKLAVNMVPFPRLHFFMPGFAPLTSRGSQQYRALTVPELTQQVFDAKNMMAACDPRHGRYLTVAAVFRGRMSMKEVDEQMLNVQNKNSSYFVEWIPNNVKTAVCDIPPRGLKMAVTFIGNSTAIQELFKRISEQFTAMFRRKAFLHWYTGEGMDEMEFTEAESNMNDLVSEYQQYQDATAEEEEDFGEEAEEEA
Briefly: TIRF microscopy, Hill fit (150 mM salt).

Experiment [2] addresses T1, taxol-stabilized microtubules (tubulin). Briefly: TIRF microscopy, Hill fit (no added salt).

B1: HURP 1-285 (protein)
chain: MSSSHFASRHRKDISTEMIRTKIAHRKSLSQKENRHKEYERNRHFGLKDVNIPTLEGRILVELDETSQGLVPEKTNVKPRAMKTILGDQRKQMLQKYKEEKQLQKLKEQREKAKRGIFKVGRYRPDMPCFLLSNQNAVKAEPKKAIPSSVRITRSKAKDQMEQTKIDNESDVRAIRPGPRQTSEKKVSDKEKKVVQPVMPTSLRMTRSATQAAKQVPRTVSSTTARKPVTRAANENEPEGKVPSKGRPAKNVETKPDKGISCKVDSEENTLNSQTNATSGMNPDG
modifications: C-terminal eGFP fusion, taxol-stabilized microtubules
For the molecule B1, the Kd in experiment [1] was about 300 nM; in experiment [2], about 29 nM.

As a reminder, the Kd is a measure of binding affinity in units of concentration.
